From patent US20170227547A1 (Hoffmann-La Roche, published 2017)

Key:
[1] = molecular target: human neonatal Fc receptor (FcRn), non-covalent complex with beta-2-microglobulin (human) (UniProt P55899); assay: FcRn affinity column (Example 2), Fc-region after IdeS cleavage
[2] = molecular target: human neonatal Fc receptor (FcRn), non-covalent complex with beta-2-microglobulin (human) (UniProt P55899); assay: FcRn affinity column, run of the Bevacizumab comparison
human IL-12 [3] = molecular target: T1, human IL-12 (human, UniProt P29459 23-219; P29460 23-328); assay: SPR, IL-12
T1 construct: also called interleukin 12
T1 sequence (looked up) 1: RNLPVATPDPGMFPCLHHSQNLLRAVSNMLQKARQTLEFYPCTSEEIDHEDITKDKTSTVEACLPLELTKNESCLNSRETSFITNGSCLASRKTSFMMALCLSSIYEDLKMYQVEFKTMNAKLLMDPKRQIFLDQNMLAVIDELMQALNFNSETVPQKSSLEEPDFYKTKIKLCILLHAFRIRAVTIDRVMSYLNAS
T1 sequence (looked up) 2: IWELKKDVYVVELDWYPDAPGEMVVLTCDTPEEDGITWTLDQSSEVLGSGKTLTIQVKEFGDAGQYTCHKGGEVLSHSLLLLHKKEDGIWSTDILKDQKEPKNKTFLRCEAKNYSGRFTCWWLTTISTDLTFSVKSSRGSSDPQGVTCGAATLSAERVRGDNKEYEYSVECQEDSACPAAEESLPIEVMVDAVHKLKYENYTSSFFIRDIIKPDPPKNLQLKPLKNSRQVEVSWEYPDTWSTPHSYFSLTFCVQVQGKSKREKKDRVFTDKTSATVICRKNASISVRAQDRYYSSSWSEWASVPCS

[4] = molecular target: human neonatal Fc receptor (FcRn), non-covalent complex with beta-2-microglobulin (human) (UniProt P55899); assay: SPR, FcRn, buffer pH 6.0
[5] = molecular target: human neonatal Fc receptor (FcRn), non-covalent complex with beta-2-microglobulin (human) (UniProt P55899); assay: SPR, FcRn, buffer pH 6.4
[6] = molecular target: human neonatal Fc receptor (FcRn), non-covalent complex with beta-2-microglobulin (human) (UniProt P55899); assay: SPR, FcRn, buffer pH 6.6
[7] = molecular target: human neonatal Fc receptor (FcRn), non-covalent complex with beta-2-microglobulin (human) (UniProt P55899); assay: FcRn affinity column (Example 2)
[8] = molecular target: human neonatal Fc receptor (FcRn), non-covalent complex with beta-2-microglobulin (human) (UniProt P55899); assay: SPR, huFcRn immobilised, pH 6.0, steady state affinity normalised to Ustekinumab
human IL-12 [9] = molecular target: T1, human IL-12; assay: IL-12 ELISA, concentration calculated from the fit of the Briakinumab calibration curve
[10] = molecular target: human neonatal Fc receptor (FcRn), non-covalent complex with beta-2-microglobulin (human) (UniProt P55899); assay: SPR, huFcRn immobilised, pH 6.0, steady state affinity normalised to Ustekinumab; SPR steady state, pH 6.0; the reference, set to 1
[11] = molecular target: human neonatal Fc receptor (FcRn), non-covalent complex with beta-2-microglobulin (human) (UniProt P55899); assay: FcRn affinity chromatography, pH gradient (Example 2), pH measured offline; FcRn affinity column, Example 2; elution pH at 84.3 min
[12] = molecular target: human neonatal Fc receptor (FcRn), non-covalent complex with beta-2-microglobulin (human) (UniProt P55899); assay: FcRn affinity column, Example 3 method, elution buffer 20 mM Tris/HCl, 400 mM NaCl, pH 8.8; FcRn affinity column, Example 3, high salt 400 mM NaCl
[13] = molecular target: human neonatal Fc receptor (FcRn), non-covalent complex with beta-2-microglobulin (human) (UniProt P55899); assay: FcRn affinity chromatography, pH gradient 5.5-8.8, 140 mM NaCl (Example 2); FcRn affinity column, Example 2, 140 mM NaCl, pH gradient; complete antibody
[14] = molecular target: human neonatal Fc receptor (FcRn), non-covalent complex with beta-2-microglobulin (human) (UniProt P55899); assay: FcRn affinity chromatography, pH gradient 5.5-8.8, 140 mM NaCl (Example 2)
human IL-12 [15] = molecular target: T1, human IL-12; assay: IL-12 ELISA, absorbance against antibody concentration
[16] = molecular target: human neonatal Fc receptor (FcRn), non-covalent complex with beta-2-microglobulin (human) (UniProt P55899); assay: FcRn affinity chromatography, pH gradient (Example 2), pH measured offline
[17] = molecular target: human neonatal Fc receptor (FcRn), non-covalent complex with beta-2-microglobulin (human) (UniProt P55899); assay: SPR, FcRn, buffer pH 6.8
[18] = molecular target: human neonatal Fc receptor (FcRn), non-covalent complex with beta-2-microglobulin (human) (UniProt P55899); assay: SPR, FcRn, buffer pH 7.0
[19] = molecular target: human neonatal Fc receptor (FcRn), non-covalent complex with beta-2-microglobulin (human) (UniProt P55899); assay: FcRn affinity chromatography, pH gradient (Example 2), pH measured offline; FcRn affinity column, Example 2; elution pH at 93.7 min
[20] = molecular target: human neonatal Fc receptor (FcRn), non-covalent complex with beta-2-microglobulin (human) (UniProt P55899); assay: SPR, huFcRn immobilised, pH 6.0, steady state affinity normalised to Ustekinumab; SPR steady state, pH 6.0, KD relative to Ustekinumab = 1

A FcRn column retention time [1] of 85.7 min was found for IdeS-cleaved Fc-region of Briakinumab in this work.

A FcRn column retention time [1] of 85.2 min was found for IdeS-cleaved Fc-region of Ustekinumab in this work.

A FcRn column retention time [2] of 84.7 min was found for Bevacizumab-wild-type (antibody) in this work.

B1: Ustekinumab (antibody, V domains shown)
VH: EVQLVQSGAEVKKPGESLKISCKGSGYSFTTYWLGWVRQMPGKGLDWIGIMSPVDSDIRYSPSFQGQVTMSVDKSITTAYLQWNSLKASDTAMYYCARRRPGQGYFDFWGQGTLVTVSS
VL: DIQMTQSPSSLSASVGDRVTITCRASQGISSWLAWYQQKPEKAPKSLIYAASSLQSGVPSRFSGSGSGTDFTLTISSLQPEDFATYYCQQYNIYPYTFGQGTKLEIK
notes: Fully human IgG1; also called CNTO 1275; Stelara
A Kd (human IL-12 [3]) of 0.2 nM, a koff (human IL-12 [3]) of 0.00018 s⁻¹ and a kon (human IL-12 [3]) of 900000 M⁻¹ s⁻¹ were found for B1 in this work. It also gave a Kd [4] of 390 nM, a Kd [5] of 1000 nM and a Kd [6] of 3100 nM. The FcRn column retention time [7] was 84.3 min, the FcRn column retention time [2] was 83.6 min and the rel. KD (Ustekinumab = 1) [8] was 1. For the same molecule, the “window of IL-12 binding relative to Briakinumab (Briakinumab=100%)” value (human IL-12 [9]) was at most 20%, the rel. KD (Ustekinumab = 1) [10] was 1 and the FcRn column elution pH [11] was 7.4 pH. For the same molecule, the FcRn column retention time [12] was 80.4 min and the FcRn column retention time [13] was 84.3 min.

B2: mAb 3 (antibody, V domains shown)
VH: EVQLVQSGAEVKKPGESLKISCKGSGYSFTTYWLGWVRQMPGKGLDWIGIMSPVDSDIRYSPSFQGQVTMSVDKSITTAYLQWNSLKASDTAMYYCARRRPGQGYFDFWGQGTLVTVSS
VL: QSVLTQPPSVSGAPGQRVTISCSGSRSNIGSNTVKWYQQLPGTAPKLLIYYNDQRPSGVPDRFSGSKSGTSASLAITGLQAEDEADYYCQSYDRYTHPALLFGTGTKVTVLG
notes: Heavy chains of Ustekinumab and light chains of Briakinumab (whole chains)
In the case of B2, the FcRn column retention time [14] is reported as 92.4 min, the binding result (human IL-12 [15]) is reported as “no binding (tested: 12 ng/mL)” and the rel. KD (Ustekinumab = 1) [8] is reported as 0.2.

B3: mAb 1 (antibody, V domains shown)
VH: EVQLVQSGAEVKKPGESLKISCKGSGYSFTTYWLGWVRQMPGKGLDWIGIMSPVDSDIRYSPSFQGQVTMSVDKSITTAYLQWNSLKASDTAMYYCARRRPGQGYFDFWGQGTLVTVSS
VL: DIQMTQSPSSLSASVGDRVTITCRASQGISSWLAWYQQKPEKAPKSLIYAASSLQSGVPSRFSGSGSGTDFTLTISSLQPEDFATYYCQQYNIYPYTFGQGTKLEIK
notes: Fv domain of Ustekinumab on the constant parts of Briakinumab (IgG1)
A Kd (human IL-12 [3]) of 0.24 nM, a koff (human IL-12 [3]) of 0.00041 s⁻¹ and a kon (human IL-12 [3]) of 1.7e+06 M⁻¹ s⁻¹ were found for B3 in this work. For the same molecule, the FcRn column retention time [14] was 84.3 min and the rel. KD (Ustekinumab = 1) [8] was 1.

B4: mAb 2 (antibody, V domains shown)
VH: QVQLVESGGGVVQPGRSLRLSCAASGFTFSSYGMHWVRQAPGKGLEWVAFIRYDGSNKYYADSVKGRFTISRDNSKNTLYLQMNSLRAEDTAVYYCKTHGSHDNWGQGTMVTVSS
VL: QSVLTQPPSVSGAPGQRVTISCSGSRSNIGSNTVKWYQQLPGTAPKLLIYYNDQRPSGVPDRFSGSKSGTSASLAITGLQAEDEADYYCQSYDRYTHPALLFGTGTKVTVLG
notes: Fv domain of Briakinumab on the Ustekinumab constant domains (IgG1)
A Kd (human IL-12 [3]) of 0.25 nM, a koff (human IL-12 [3]) of 0.0003 s⁻¹ and a kon (human IL-12 [3]) of 1.2e+06 M⁻¹ s⁻¹ were found for B4 in this work. The FcRn column retention time [14] was 93 min, the rel. KD (Ustekinumab = 1) [8] was 0.3 and the “window of IL-12 binding relative to Briakinumab (Briakinumab=100%)” value (human IL-12 [9]) was at most 20%.

B5: mAb 8 (antibody, IgG1, V domains shown)
VH: QVQLVESGGGVVQPGASLALSCAASGFTFSSYGMHWVRQAPGKGLEWVAFIRYDGSNAYYADSVAGRFTISRDNSKNTLYLQMNSLAAEDTAVYYCKTHGSHDNWGQGTMVTVSS
VL: QSVLTQPPSVSGAPGQRVTISCSGSRSNIGSNTVKWYQQLPGTAPKLLIYYNDQRPSGVPDRFSGSKSGTSASLAITGLQAEDEADYYCQSYDRYTHPALLFGTGTKVTVL
notes: Briakinumab variant (IgG1) with five positively charged heavy chain residues mutated; also called Briakinumab with HC mutations R16A, R19A, K57A, K64A, R83A
A Kd (human IL-12 [3]) of 0.07 nM, a koff (human IL-12 [3]) of 9.1e-05 s⁻¹ and a kon (human IL-12 [3]) of 1.2e+06 M⁻¹ s⁻¹ were found for B5 in this work. For the same molecule, the FcRn column retention time [7] was 90.1 min, the FcRn column retention time [14] was 90.1 min and the FcRn column elution pH [16] was 7.7 pH. It also gave a rel. KD (Ustekinumab = 1) [8] of 0.4.

B6: Briakinumab (antibody, V domains shown)
VH: QVQLVESGGGVVQPGRSLRLSCAASGFTFSSYGMHWVRQAPGKGLEWVAFIRYDGSNKYYADSVKGRFTISRDNSKNTLYLQMNSLRAEDTAVYYCKTHGSHDNWGQGTMVTVSS
VL: QSVLTQPPSVSGAPGQRVTISCSGSRSNIGSNTVKWYQQLPGTAPKLLIYYNDQRPSGVPDRFSGSKSGTSASLAITGLQAEDEADYYCQSYDRYTHPALLFGTGTKVTVLG
notes: Fully human IgG1; also called ABT 874; J 695
A Kd (human IL-12 [3]) of 0.07 nM, a koff (human IL-12 [3]) of 6e-05 s⁻¹ and a kon (human IL-12 [3]) of 800000 M⁻¹ s⁻¹ were found for B6 in this work. The Kd [4] was 90 nM, the Kd [5] was 100 nM and the Kd [6] was 360 nM. The Kd [17] was 600 nM, the Kd [18] was 4.2 µM and the FcRn column retention time [7] was 93.7 min. The FcRn column retention time [2] was 91.6 min, the rel. KD (Ustekinumab = 1) [8] was 0.2 and the “window of IL-12 binding relative to Briakinumab (Briakinumab=100%)” value (human IL-12 [9]) was at most 20%. It also gave a FcRn column elution pH [19] of 7.9 pH, a rel. KD (Ustekinumab = 1) [20] of 0.2 and a FcRn column retention time [12] of 83.1 min. It also gave a FcRn column retention time [13] of 93.7 min.

B7: mAb 9 (antibody, IgG1, V domains shown)
VH: QVQLVESGGGVVQPGRSLRLSCAASGFTFSSYGMHWVRQAPGKGLEWVAFIRYDGSNKYYADSVKGRFTISRDNSKNTLYLQMNSLRAEDTAVYYCKTHGSHDNWGQGTMVTVSS
VL: QSVLTQPPSVSGAPGQRVTISCSGSASNIGSNTVKWYQQLPGTAPKLLIYYNDQAPSGVPDRFSGSKSGTSASLAITGLQAEDEADYYCQSYDAYTHPALLFGTGTKVTVL
notes: Briakinumab variant (IgG1) with three positively charged residues of the light chain CDRs mutated to alanine; also called Briakinumab with LC mutations R27A, R55A, R94A
A Kd (human IL-12 [3]) of 0.01 nM, a koff (human IL-12 [3]) of 0.00013 s⁻¹ and a kon (human IL-12 [3]) of 8.8e+06 M⁻¹ s⁻¹ were found for B7 in this work. It also gave a FcRn column retention time [7] of 86.2 min, a FcRn column retention time [14] of 86.2 min and a FcRn column elution pH [16] of 7.5 pH. For the same molecule, the rel. KD (Ustekinumab = 1) [8] was 0.4.
